Reference: PMC11293989 (Molecular cancer therapeutics, 2024)
One block for each molecule: values may come before it.

Experiments:
Test in all cases: SPR
[1] = biological target: NGM438, humanized IgG1 effector-less monoclonal antibody against LAIR1
[2] = biological target: recombinant human LAIR1-his (Homo sapiens, UniProt Q6GTX8)
human LAIR2 = human LAIR2 (Homo sapiens, UniProt Q6ISS4)
LAIR1 from mouse = LAIR1 from mouse (Mus musculus, UniProt Q8BG84)
LAIR1 from rat = LAIR1 from rat (Rattus norvegicus, UniProt P0C1X9)
Sequence of LAIR1 from rat (P0C1X9 22-263): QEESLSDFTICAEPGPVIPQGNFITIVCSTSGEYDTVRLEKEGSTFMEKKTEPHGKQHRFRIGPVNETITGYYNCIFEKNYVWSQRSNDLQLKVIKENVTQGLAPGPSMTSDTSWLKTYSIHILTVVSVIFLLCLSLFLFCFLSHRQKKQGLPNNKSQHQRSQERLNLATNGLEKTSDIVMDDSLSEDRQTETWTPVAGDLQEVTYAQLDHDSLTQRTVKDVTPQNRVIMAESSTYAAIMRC

Sequence of human LAIR2 (Q6ISS4 22-152): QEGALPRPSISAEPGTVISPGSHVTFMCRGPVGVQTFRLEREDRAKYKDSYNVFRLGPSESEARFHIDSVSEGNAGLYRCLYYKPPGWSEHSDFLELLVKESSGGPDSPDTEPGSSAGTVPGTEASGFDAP
Sequence of recombinant human LAIR1-his (Q6GTX8 22-287): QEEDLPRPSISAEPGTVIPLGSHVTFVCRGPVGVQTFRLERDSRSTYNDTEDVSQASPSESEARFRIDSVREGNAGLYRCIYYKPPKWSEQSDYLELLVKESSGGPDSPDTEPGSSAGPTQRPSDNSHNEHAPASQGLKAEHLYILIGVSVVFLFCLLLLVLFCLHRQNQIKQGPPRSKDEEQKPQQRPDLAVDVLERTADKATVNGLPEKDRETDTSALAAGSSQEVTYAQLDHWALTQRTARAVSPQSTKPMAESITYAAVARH
Sequence of LAIR1 from mouse (Q8BG84 22-263): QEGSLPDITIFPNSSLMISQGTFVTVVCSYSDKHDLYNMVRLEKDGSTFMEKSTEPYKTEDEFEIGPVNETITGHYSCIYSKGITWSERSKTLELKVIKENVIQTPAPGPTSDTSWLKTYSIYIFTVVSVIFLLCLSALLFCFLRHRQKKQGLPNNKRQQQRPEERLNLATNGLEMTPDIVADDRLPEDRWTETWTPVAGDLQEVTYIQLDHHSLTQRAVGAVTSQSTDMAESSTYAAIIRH

Kd [1]: 4.28 nM
Molecule: recombinant cynomolgus monkey LAIR1-his (receptor)

Kd [2]: 0.26 ± 0.03 nM | binding result (human LAIR2): no binding | binding result (LAIR1 from mouse): no binding | binding result (LAIR1 from rat): no binding
B1: NGM438, humanized IgG1 effector-less monoclonal antibody against LAIR1 (antibody, V domains shown)
VH: EVQLVESGGGLVQPGGSLRLSCAASGFTFNINAMNWVRQAPGKGLEWVARIRTKNYNYATFYADSVKDRFTISRDDSKNSLYLQMNSLKTEDTAVYYCVRDRAGFFAYWGQGTTVTVSS
VL: DIQMTQSPSSLSASVGDRVTITCLASQTIGTWLGWYQQKPGKAPKLLIYAATSLAEGVPSRFSGSGSGTDFTLTISSLQPEDFATYYCQQLYSTPLTFGGGTKVEIK
